Results from US5976859.

proteolytic activity (U/mg), casein as substrate (casein): 4290 U/mg
hydrolysis of Azocoll, absorbance at 520 nm (% of original activity) (Azocoll): 47
percent of β-casein hydrolyzed, band intensity on SDS-PAGE (β-casein): 87 % hydrolyzed
Substance: protease Q (enzyme)
